According to US20150203579A1 (Regeneron, published 2015):

T1: recombinant cynomolgus monkey PD-1 expressed with a C-terminal myc-myc-hexahistidine tag (cynomolgus monkey (Macaca fascicularis))
T1 construct: Monomeric reagent; also called MfPD-1-MMH
T1 chain: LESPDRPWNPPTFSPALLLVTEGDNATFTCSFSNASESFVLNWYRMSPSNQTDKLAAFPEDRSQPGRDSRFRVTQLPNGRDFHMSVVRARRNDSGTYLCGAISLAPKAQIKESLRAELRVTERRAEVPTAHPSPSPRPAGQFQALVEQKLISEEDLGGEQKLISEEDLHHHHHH

T2: monkey PD-1 with mFc (monkey (MfPD-1))
T2 construct: also called monkey PD-1-mFc; monkey PD-1 dimer
T2 chain: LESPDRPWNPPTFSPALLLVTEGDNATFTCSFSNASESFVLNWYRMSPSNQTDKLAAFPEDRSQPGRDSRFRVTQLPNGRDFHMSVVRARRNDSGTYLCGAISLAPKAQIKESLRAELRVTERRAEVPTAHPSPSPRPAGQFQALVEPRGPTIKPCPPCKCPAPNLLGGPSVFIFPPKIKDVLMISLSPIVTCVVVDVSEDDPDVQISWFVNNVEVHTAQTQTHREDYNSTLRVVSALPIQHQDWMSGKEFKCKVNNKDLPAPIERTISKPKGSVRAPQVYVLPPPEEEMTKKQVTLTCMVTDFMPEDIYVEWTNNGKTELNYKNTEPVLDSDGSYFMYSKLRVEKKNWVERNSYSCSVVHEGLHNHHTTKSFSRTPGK


How the values were obtained:
[1] = target: T3, recombinant human PD-1 expressed with a C-terminal myc-myc-hexahistidine tag (human); experiment: SPR (Biacore), mAb captured, hPD-1-MMH injected, 25 C;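 note: rate constants obtained by fitting sensorgrams to a 1:1 binding model, KD derived as kd/ka and half-life as ln2/(60·kd) in minutes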
T3 construct: also called hPD-1-MMH; human PD-1-MMH

[2] = target: T3, recombinant human PD-1 expressed with a …; experiment: SPR (Biacore), hPD-1-MMH, 37 C; end of range tied to H2aM7798N by Table 5
[3] = target: T1, recombinant cynomolgus monkey PD-1 …; experiment: SPR (Biacore), MfPD-1-MMH, 37 C; end of range tied to H2aM7798N by Table 9
[4] = target: PD-1 chimera: extracellular domain of human PD-1 with trans-membrane and cytoplasmic domains of human CD300a, … (human, UniProt Q9UGN4 181-299, limits assumed); experiment: cell-based or functional assay
[5] = target: T4, human PD-1 dimer (human PD-1-mFc or human PD-1-hFc) (human, UniProt Q15116 25-170); experiment: SPR (Biacore), hPD-1 dimer (mFc or hFc), 25 C; end of range tied to H2aM7798N by Table 6
T4 construct: also called hPD-1 dimer proteins

[6] = target: T5, recombinant human PD-1 dimer expressed with a C-terminal mouse IgG2a Fc tag (human); experiment: competition ELISA: blocking 100 pM hPD-1-mFc binding to coated hPD-L2-hFc; end tied to H2aM7798N by Table 14
T5 construct: also called hPD-1-mFc; human PD-1-mFc

[7] = target: T6, full length human PD-1 on HEK293 cells (HEK293/hPD-1) (human, UniProt Q15116 25-288); experiment: FACS, dose titration on HEK293/hPD-1 cells; end tied to H4H7798N by Table 21
T6 construct: also called human PD-1 expressing cells

monkey PD-1 with mFc [8] = target: T2, monkey PD-1 with mFc; experiment: SPR (Biacore), monkey PD-1-mFc, 25 C; end of range tied to H4H7798N by Table 10
[9] = target: T6, full length human PD-1 on HEK293 cells …; experiment: FACS, dose titration on HEK293/hPD-1 cells; end tied to H2aM7796N by Table 21
[10] = target: T3, recombinant human PD-1 expressed with a …; experiment: SPR (Biacore), hPD-1-MMH, 37 C; end of range tied to H2aM7796N by Table 5
[11] = target: T7, dimeric biotinylated human PD-1 protein, human PD-1 extracellular domain with a C-terminal human Fc tag (human, biotinylated (sites not given)); experiment: competition ELISA: blocking 200 pM biot-hPD-1-hFc binding to coated hPD-L1-mFc; end tied to H2aM7796N (and H4xH9008P) by Table 13
T7 construct: also called biot-hPD-1-hFc

[12] = target: T1, recombinant cynomolgus monkey PD-1 …; experiment: SPR (Biacore), MfPD-1-MMH, 37 C; end of range tied to H4xH9045P by Table 9
monkey PD-1 with mFc [13] = target: T2, monkey PD-1 with mFc; experiment: SPR (Biacore), monkey PD-1-mFc, 37 C; end of range tied to H4H9068P2 by Table 11
monkey PD-1 with mFc [14] = target: T2, monkey PD-1 with mFc; experiment: SPR (Biacore), monkey PD-1-mFc, 25 C; end of range tied to H4H9068P2 by Table 10
[15] = target: T1, recombinant cynomolgus monkey PD-1 …; experiment: SPR (Biacore), MfPD-1-MMH, 25 C; end of range tied to H4H9057P2 by Table 8
[16] = target: T5, recombinant human PD-1 dimer expressed …; experiment: competition ELISA: blocking 1.5 nM hPD-1-mFc binding to coated hPD-L1-hFc; end tied to H4H9057P2 by Table 12 (below theoretical bottom 0.75 nM)
[17] = target: T6, full length human PD-1 on HEK293 cells …; experiment: FACS, dose titration on HEK293/hPD-1 cells; end tied to H1M7799N by Table 20
[18] = target: T7, dimeric biotinylated human PD-1 …; experiment: competition ELISA: blocking 200 pM biot-hPD-1-hFc binding to coated hPD-L1-mFc; end tied to H1M7799N by Table 13 (below theoretical bottom 100 pM)
monkey PD-1 with mFc [19] = target: T2, monkey PD-1 with mFc; experiment: SPR (Biacore), monkey PD-1-mFc, 37 C; end of range tied to H4xH9008P by Table 11 (kd fixed at 1.00E-05)
[20] = target: T5, recombinant human PD-1 dimer expressed …; experiment: competition ELISA: blocking 1.5 nM hPD-1-mFc binding to coated hPD-L1-hFc; end tied to H4xH9048P2 by Table 12

Binder | Kd [1] [nM] | koff [1] [s⁻¹] | kon [1] [M⁻¹ s⁻¹] | t½ [1] [min] | other results
H2aM7798N (antibody, mouse IgG2a, V domains shown, Human variable domains, mouse IgG2a Fc; also called H2M7798N) VH: EVQLLESGGVLVQPGGSLRLSCAASGFTFSNFGMTWVRQAPGKGLEWVSGISGGGRDTYFADSVKGRFTISRDNSKNTLYLQMNSLKGEDTAVYYCVKWGNIYFDYWGQGTLVTVSS VL: DIQMTQSPSSLSASVGDSITITCRASLSINTFLNWYQQKPGKAPNLLIYAASSLHGGVPSRFSGSGSGTDFTLTIRTLQPEDFATYYCQQSSNTPFTFGPGTVVDFR | 2.31 | 0.000306 | 132000 | 38 | Kd [2]: 3.79 nM; Kd [3]: 7 nM; Emax, AP1-Luc signal at 100 nM antibody (% of signal without anti-PD-1 antibody) [4]: 239%; Kd [5]: 0.0655 nM; IC50 [6]: 0.13 nM
H2aM7796N (antibody, mouse IgG2a, V domains shown, Human variable domains, mouse IgG2a Fc; also called H2M7796N) VH: QVQLVESGGGVVQPGRSLRLSCAASGFTFSSYGMHWVRQAPGKGLEWVAIIWSDGDSEYNLDSVKGRFTISRDNSKNTLYLQMNSLRVEDSAVYYCARDRDLEDIWGQGTMVTVSS VL: DIQMTQSPSSLSASVGDRVTITCRASQGIRNDLGWYQQKPGKAPKRLIYAASNLQSGVPSRFSGSGSGTEFTLTISSLQPEDFATYYCLQHNSYPLTFGGGTKVEIK | 286 | 0.00193 | 6730 | 6 | EC50 [9]: 4.81 nM; Kd [10]: 1510 nM; IC50 [11]: 1.3 nM
H4H9068P2 (antibody, human IgG4, V domains shown, Human IgG4 Fc (H4H prefix)) VH: EVQLVESGGGLVQRGGSLRLSCAASGFSFSSYAMNWVRQAPGKGLEWVSTISDSGGSTYYADSVKGRFTISRDNSKNTLSLQMNSLRAEDTAVYYCAKDQGGSYPYYFHYWGQGTLVTVSS VL: not shown |  |  |  |  | Kd (monkey PD-1 with mFc [13]): 86.3 nM; Kd (monkey PD-1 with mFc [14]): 54.2 nM
H1M7799N (antibody, mouse IgG1, V domains shown, Human variable domains, mouse IgG1 Fc) VH: EVQLVESGGGLVQPGGSLRLSCAASGFTVSNNYMSWVRQAPGKGLEWVSVIYSGGFTYYTDSVKGRFTISRHNSKNTLYLQMNSLRAEDTAVYYCARYYYDTSDYWTFFDYWGQGTLVTVSS VL: EIVMTQSPATLSVSPGERATLSCRASQSVSSNLAWYQQKPGQAPRLLIYGASTRATGIPARFSGSGSGTEFTLTISSLQSGDFAVYYCQQYNNWPLTFGGGTKVEIN | 244 | 0.0123 | 50400 | 0.9 | EC50 [17]: 0.0332 nM; IC50 [18]: 0.059 nM
H4xH9048P2 (antibody, human IgG4, V domains shown, H4xH: modified human IgG4 Fc) VH: QVQLVQSGAEVKRPGSSVKVSCKVSGVTFRNFAIIWVRQAPGQGLEWMGGIIPFFSAANYAQSFQGRVTITPDESTSTAFMELASLRSEDTAVYYCAREGERGHTYGFDYWGQGTLVTVSS VL: not shown | 8.95 | 0.00123 | 137000 | 9.4 | IC50 [20]: 3.3 nM

Now from value to binder, other results behind:

Kd [1] [nM] | koff [1] [s⁻¹] | kon [1] [M⁻¹ s⁻¹] | t½ [1] [min] | Binder | other results
3.01 | 0.000443 | 147000 | 26 | H4H7798N (antibody, human IgG4 S228P, kappa, V domains shown) VH: EVQLLESGGVLVQPGGSLRLSCAASGFTFSNFGMTWVRQAPGKGLEWVSGISGGGRDTYFADSVKGRFTISRDNSKNTLYLQMNSLKGEDTAVYYCVKWGNIYFDYWGQGTLVTVSS VL: DIQMTQSPSSLSASVGDSITITCRASLSINTFLNWYQQKPGKAPNLLIYAASSLHGGVPSRFSGSGSGTDFTLTIRTLQPEDFATYYCQQSSNTPFTFGPGTVVDFRR | EC50 [7]: 0.509 nM; Emax, AP1-Luc signal at 100 nM antibody (% of signal without anti-PD-1 antibody) [4]: 343%; Kd (monkey PD-1 with mFc [8]): 0.137 nM
74.6 | 0.00403 | 54000 | 2.9 | H4xH9045P (antibody, human IgG4, V domains shown, H4xH: modified human IgG4 Fc; also called H4xH9045P2) VH: EVQLVESGGGLVQPGRSLRLSCAASGFTFDDYDMHWVRQAPGKGLEWVSGSGWNRGSLGYADSVKGRFTISRDNAKKSLYLQMNSVRVEDTALYYCAKGFVVVSAAYFDYWGQGTLVTVSS VL: not shown | Kd [12]: 7540 nM
291 | 0.0134 | 46000 | 0.9 | H4H9057P2 (antibody, human IgG4, V domains shown, Human IgG4 Fc (H4H prefix)) VH: EVQLVESGGGLVQSGRSLRLSCAASGFTFDDYAMHWVRQPPGKGLEWVSGINWNRGRTGYADSVKGRFTISRDNAKNSLYLQMNDLRVEDTALYYCAKAEQWLDEGYFDYWGQGTLVTVSS VL: not shown | Kd [15]: 551 nM; IC50 [16]: 0.19 nM
31 |  |  | 8.7 | H4xH9008P (antibody, human IgG4, V domains shown, H4xH: modified human IgG4 Fc) VH: EVQLVESGGGLVRPGGSLRLSCAASGFTFSTYAMAWVRQTPGKGLEGVSAIGGSGDSTYYVDSVKGRFTISRDNSKSTLFLQMNSLRAEDTAVYYCVKVRNYDGSFDIWGQGTMVTVSS VL: not shown | Kd (monkey PD-1 with mFc [19]): < 0.049 nM
